T1: human GIP receptor (human, UniProt P48546 22-466)
T1 sequence (looked up): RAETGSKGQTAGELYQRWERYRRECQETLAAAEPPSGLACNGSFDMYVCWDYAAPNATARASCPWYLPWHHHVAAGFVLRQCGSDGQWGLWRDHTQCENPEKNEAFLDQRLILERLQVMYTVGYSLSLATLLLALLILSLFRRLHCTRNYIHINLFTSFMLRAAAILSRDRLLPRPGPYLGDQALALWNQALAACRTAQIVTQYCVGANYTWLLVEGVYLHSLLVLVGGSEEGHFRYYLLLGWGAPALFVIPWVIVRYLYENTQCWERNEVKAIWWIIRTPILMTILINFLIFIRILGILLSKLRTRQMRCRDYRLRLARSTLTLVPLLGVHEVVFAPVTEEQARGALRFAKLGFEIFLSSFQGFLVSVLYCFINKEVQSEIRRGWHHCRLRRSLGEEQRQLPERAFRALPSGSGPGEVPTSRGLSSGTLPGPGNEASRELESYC


Key:
Assay in all cases: cell-based or functional assay
human GLP-1 receptor = human GLP-1 receptor (human, UniProt P43220 24-463)
human GIP receptor = molecular target: T1, human GIP receptor
human glucagon receptor = human glucagon receptor (human, UniProt P47871 26-477)

Row | Binder | cAMP EC50 (1.0% HSA) (human GLP-1 receptor) [nM] | cAMP EC50 (1.0% HSA) (human GIP receptor) [nM] | cAMP Emax (1.0% HSA) (human GIP receptor) [%] | cAMP EC50 (1.0% HSA) (human glucagon receptor) [nM]
1 | YXEGTXTSDXSIXLDXKAQXEFIXXLIEGGPSSGAPPPSK (Y-Aib-EGT-αMeF(2F)-TSD-2Nal-SI-αMeL-LD-Orn-K((2-[2-(2-Amino-ethoxy)-ethoxy]-acetyl)2-CO-(CH2)12-CO2H)AQ-Aib-EFI-(D-Glu)-αMeY-LIEGGPSSGAPPPSK((2-[2-(2-Amino-ethoxy)-ethoxy]-acetyl)2-CO-(CH2)12-CO2H)-NH2) [Example 257] | 46.3 | 5.61 | 72.2 | > 9950
2 | YXEGTXTSDXSIXLDXIAQXKFIXXLIEGGPSSGAPPPSK (Y-Aib-EGT-αMeF(2F)-TSD-OMeY-SI-αMeL-LD-Orn-IAQ-Aib-K((2-[2-(2-Amino-ethoxy)-ethoxy]-acetyl)2-(γ-Glu)-CO-(CH2)12-CO2H)FI-(D-Glu)-αMeY-LIEGGPSSGAPPPSK((2-[2-(2-Amino-ethoxy)-ethoxyl-acetyl)2-(γ-Glu)-CO-(CH2)12-CO2H)-NH2) [Example 264] | 75.2 | 7.12 | 84.4 | > 9950
3 | YXEGTXTSDXSIXLDXKAQXEFIXXLIEGGPSSGAPPPSK (Y-Aib-EGT-αMeF(2F)-TSD-4Pal-SI-αMeL-LD-Orn-K((2-[2-(2-Amino-ethoxy)-ethoxy]-acetyl)2-(γ-Glu)-(11-(4-carboxyphenoxy)undecanoyl))AQ-Aib-EFI-(D-Glu)-αMeY-LIEGGPSSGAPPPSK((2-[2-(2-Amino-ethoxy)-ethoxy]-acetyl)2-(γ-Glu)-(11-(4-carboxyphenoxy)undecanoyl))-NH2) [Example 285] | 136 | 1.28 | – | > 9950
4 | YXEGTXTSDXSIXLDXKAQXEFIXXLIEGGPSSGAPPPSK (Y-Aib-EGT-αMeF(2F)-TSD-4Pal-SI-αMeL-LD-Orn-K((2-[2-(2-Amino-ethoxy)-ethoxy]-acetyl)2-(γ-Glu)-(10-(4-carboxyphenoxy)decanoyl))AQ-Aib-EFI-(D-Glu)-αMeY-LIEGGPSSGAPPPSK((2-[2-(2-Amino-ethoxy)-ethoxy]-acetyl)2-(γ-Glu)-(10-(4-carboxyphenoxy)decanoyl))-NH2) [Example 273] | 40.9 | 0.318 | – | > 9950
5 | YXEGTXTSDXSIXLDXKAQXEFIXXLIEGGPSSGAPPPSK (Y-Aib-EGT-αMeF(2F)-TSD-OMeY-SI-αMeL-LD-Orn-K((2-[2-(2-Amino-ethoxy)-ethoxy]-acetyl)2-CO-(CH2)12-CO2H)AQ-Aib-EFI-(D-Glu)-αMeY-LIEGGPSSGAPPPSK((2-[2-(2-Amino-ethoxy)-ethoxy]-acetyl)2-CO-(CH2)12-CO2H)-NH2) [Example 267] | 8.46 | 0.808 | – | > 9950
6 | YXEGTXTSDXSIXLDXIAQXKFIXXLIEGGPSSGAPPPSK (Y-Aib-EGT-αMeF(2F)-TSD-OMeY-SI-αMeL-LD-Orn-IAQ-Aib-K((2-[2-(2-Amino-ethoxy)-ethoxy]-acetyl)2-CO-(CH2)12-CO2H)FI-(D-Glu)-αMeY-LIEGGPSSGAPPPSK((2-[2-(2-Amino-ethoxy)-ethoxy]-acetyl)2-CO-(CH2)12-CO2H)-NH2) [Example 268] | 26.5 | 5.06 | 92.3 | > 9950
7 | YXEGTXTSDXSIXLDXIAQXKFIXXLIEGGPSSGAPPPSK (Y-Aib-EGT-αMeF(2F)-TSD-2Nal-SI-αMeL-LD-Orn-IAQ-Aib-K((2-[2-(2-Amino-ethoxy)-ethoxy]-acetyl)2-CO-(CH2)12-CO2H)Fl-(D-Glu)-αMeY-LIEGGPSSGAPPPSK((2-[2-(2-Amino-ethoxy)-ethoxy]-acetyl)2-CO-(CH2)12-CO2H)-NH2) [Example 258] | 41.5 | 5.28 | 84.3 | > 9950
8 | YXEGTXTSDXSIXLDXKAQXEFIXXLIEGGPSSGAPPPSK (Y-Aib-EGT-αMeF(2F)-TSD-OMeY-SI-αMeL-LD-Orn-K((2-[2-(2-Amino-ethoxy)-ethoxy]-acetyl)2-(γ-Glu)-CO-(CH2)12-CO2H)AQ-Aib-EFI-(D-Glu)-αMeY-LIEGGPSSGAPPPSK((2-[2-(2-Amino-ethoxy)-ethoxy]-acetyl)2-(γ-Glu)-CO-(CH2)12-CO2H)-NH2) [Example 261] | 15.6 | 2.28 | 75.7 | > 9950
9 | YXEGTXTSDXSIXLDXIAQXKFIXXLIEGGPSSGAPPPSK (Y-Aib-EGT-αMeF(2F)-TSD-4Pal-SI-αMeL-LD-Orn-IAQ-Aib-K((2-[2-(2-Amino-ethoxy)-ethoxy]-acetyl)2-(y-Glu)-(10-(4-carboxyphenoxy)decanoyl))FI-(D-Glu)-αMeY-LIEGGPSSGAPPPSK((2-[2-(2-Amino-ethoxy)-ethoxy]-acetyl)2-(γ-Glu)-(10-(4-carboxyphenoxy)decanoyl))-NH2) [Example 276] | 63.6 | 1.97 | 91.4 | > 9950
10 | YXEGTXTSDXSIXLDXKAQXKFIXXLIEGGPSSGAPPPS (Y-Aib-EGT-αMeF(2F)-TSD-2Nal-SI-αMeL-LD-Orn-K((2-[2-(2-Amino-ethoxy)-ethoxy]-acetyl)2-CO-(CH2)12-CO2H)AQ-Aib-K((2-[2-(2-Amino-ethoxy)-ethoxy]-acetyl)2-CO-(CH2)12-CO2H)FI-(D-Glu)-αMeY-LIEGGPSSGAPPPS-NH2 …) [Example 255] | 13.7 | 2.27 | – | > 9950
11 | YXEGTXTSDXSIXLDXKAQXKFIXXLIEGGPSSGAPPPS (Y-Aib-EGT-αMeF(2F)-TSD-OMeY-SI-αMeL-LD-Orn-K((2-[2-(2-Amino-ethoxy)-ethoxy]-acetyl)2-CO-(CH2)12-CO2H)AQ-Aib-K((2-[2-(2-Amino-ethoxy)-ethoxy]-acetyl)2-CO-(CH2)12-CO2H)FI-(D-Glu)-αMeY-LIEGGPSSGAPPPS-NH2 …) [Example 265] | 5.14 | 0.775 | – | > 9950
12 | YXEGTXTSDXSIXLDXIAQXKFIXXLIKGGPSSGAPPPS (Y-Aib-EGT-αMeF(2F)-TSD-OMeY-SI-αMeL-LD-Orn-IAQ-Aib-K((2-[2-(2-Amino-ethoxy)-ethoxy]-acetyl)2-(γ-Glu)-(10-(4-carboxyphenoxy)decanoyl))FI-(D-Glu)-αMeY-LIK((2-[2-(2-Amino-ethoxy)-ethoxy]-acetyl)2-(γ-Glu)-(10-(4-carboxyphenoxy)decanoyl))GGPSSGAPPPS-NH2) [Example 280] | 49.9 | 4.84 | 88.5 | > 9950
13 | YXEGTXTSDXSIXLDXKAQXKFIXXLIEGGPSSGAPPPS (Y-Aib-EGT-αMeF(2F)-TSD-Nle-SI-αMeL-LD-Orn-K((2-[2-(2-Amino-ethoxy)-ethoxy]-acetyl)2-CO-(CH2)12-CO2H)AQ-Aib-K((2-[2-(2-Amino-ethoxy)-ethoxy]-acetyl)2-CO-(CH2)12-CO2H)FI-(D-Glu)-αMeY-LIEGGPSSGAPPPS-NH2) [Example 271] | 10.2 | 0.767 | – | > 9950
14 | YXEGTXTSDXSIXLDXIAQXKFIXXLIKGGPSSGAPPPS (Y-Aib-EGT-αMeF(2F)-TSD-OMeY-SI-αMeL-LD-Orn-IAQ-Aib-K((2-[2-(2-Amino-ethoxy)-ethoxy]-acetyl)2-(γ-Glu)-CO-(CH2)12-CO2H)FI-(D-Glu)-αMeY-LIK((2-[2-(2-Amino-ethoxy)-ethoxy]-acetyl)2-(γ-Glu)-CO-(CH2)12-CO2H)GGPSSGAPPPS-NH2) [Example 263] | 56.7 | 5.91 | – | > 9950
15 | YXEGTXTSDXSIXLDXKAQXEFIXXLIKGGPSSGAPPPS (Y-Aib-EGT-αMeF(2F)-TSD-OMeY-SI-αMeL-LD-Orn-K((2-[2-(2-Amino-ethoxy)-ethoxy]-acetyl)2-(γ-Glu)-(10-(4-carboxyphenoxy)decanoyl))AQ-Aib-EFI-(D-Glu)-αMeY-LIK((2-[2-(2-Amino-ethoxy)-ethoxy]-acetyl)2-(γ-Glu)-(10-(4-carboxyphenoxy)decanoyl))GGPSSGAPPPS-NH2) [Example 278] | 27 | 1.41 | – | > 9950

From patent US20230265151A1, “GIP/GLP1 CO-AGONIST COMPOUNDS” (priority 2020, published 2023)
